This is an account of results in patent US20250281586A1 (ELANCO US, published 2025).

Test [1] deals with T1, recombinant mouse IL-1RI Fc chimera (R&D 771-MR-100) (mouse, UniProt P13504 20-338).
T1 construct: Coated on ELISA plates at 1 µg/ml; used in place of canine and feline IL-1RI, which were not commercially available; also called IL-1RI receptor; Fc part of the bought chimera not given; not described
T1 sequence (looked up): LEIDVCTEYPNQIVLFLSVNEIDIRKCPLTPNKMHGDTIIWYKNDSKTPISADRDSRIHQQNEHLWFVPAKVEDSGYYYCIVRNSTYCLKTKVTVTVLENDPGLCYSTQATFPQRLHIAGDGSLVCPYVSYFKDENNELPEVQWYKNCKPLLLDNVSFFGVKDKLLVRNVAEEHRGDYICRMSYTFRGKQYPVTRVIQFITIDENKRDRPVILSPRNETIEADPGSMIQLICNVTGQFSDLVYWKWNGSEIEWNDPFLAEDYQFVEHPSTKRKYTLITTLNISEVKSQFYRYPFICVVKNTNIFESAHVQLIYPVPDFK
Briefly: ELISA on coated mouse IL-1RI Fc chimera, detection with biotinylated anti-fIL-1β antibody. In general terms: In an ELISA, binding on a coated surface is turned into a signal by an enzyme label.

Test [2] concerns the target T1, recombinant mouse IL-1RI Fc chimera …. Briefly: ELISA on coated mouse IL-1RI Fc chimera.
Test [3] shares this target. Briefly: ELISA on coated mouse IL-1RI Fc chimera, detection with biotinylated anti-cIL-1β antibody.

B1: purified feline IL-1β wild type of SEQ ID NO:38 (ligand)
chain: AAIQSQDYTFRDISQKSLVLSGSYELRALHLNGQNMNQQVVFRMSFVHGEENSKKIPVVLCIKKNNLYLSCVMKDGKPTLQLEMLDPKVYPKKKMEKRFVFNKTEIKGNVEFESSQFPNWYISTSQAEEMPVFLGNTKGGQDITDFIMESAS
notes: also called purified wild type feline IL-1β; recombinant feline wild type IL-1β
With B1, the binding result in test [1] was “binds”.

B2: cIL1b-D145K-CMV-Ntt830-E4 VLPs (other)
chain 1: MGQYIKANSKFIGITERRRRPRRGSRSAPSSADANFRVLSQQLSRLNKTLAAGRPTINHPTFVGSERCKPGYTFTSITLKPPKIDRGSGGGSEEEEGGGSGSYYGKRLLLPDSVTEYDKKLVSRIQIRVNPLPKFDSTVWVTVRKVPASSDLSVAAISAMFADGASPVLVYQYAASGVQANNKLLYDLSAMRADIGDMRKYAVLVYSKDDALETDELVLHVDVEHQRIPTSGVLPV
chain 2: MGSAAMQSVDCKLQDISHKYLVLSNSYELRALHLNGENVNKQVVFHMSFVHGDESNNKIPVVLGIKQKNLYLSCVMKDGKPTLQLEKVDPKVYPKRKMEKRFVFNKIEIKNTVEFESSQYPNWYISTSQVEGMPVFLGNTRGGQDITKFTMEFSSTSHHHHHHGGCG
modifications: engineered free cysteine linked to the maleimide of SMPH bound to the VLP; lysine on the VLP surface derivatized with SMPH
notes: also called cIL1b-D145K-CMV-Ntt830-E4 vaccine; cIL-1b-D145K-CMV vaccine
For the molecule B2, the binding result in test [2] is reported as “binds”.

B3: canine IL-1β-D145K mutein antigen (ligand)
chain: MGSAAMQSVDCKLQDISHKYLVLSNSYELRALHLNGENVNKQVVFHMSFVHGDESNNKIPVVLGIKQKNLYLSCVMKDGKPTLQLEKVDPKVYPKRKMEKRFVFNKIEIKNTVEFESSQYPNWYISTSQVEGMPVFLGNTRGGQDITKFTMEFSSTSHHHHHHGGCG
notes: expressed in E. coli and purified by IMAC and gel filtration; also called cIL-1β-D145K antigen; cIL1b-D145K-C6Hcg
Take B3: in test [3], the binding result was “binds”.

B4: fIL-1b-D145K-CMV-Ntt830-E4 VLPs (other)
chain 1: MGQYIKANSKFIGITERRRRPRRGSRSAPSSADANFRVLSQQLSRLNKTLAAGRPTINHPTFVGSERCKPGYTFTSITLKPPKIDRGSGGGSEEEEGGGSGSYYGKRLLLPDSVTEYDKKLVSRIQIRVNPLPKFDSTVWVTVRKVPASSDLSVAAISAMFADGASPVLVYQYAASGVQANNKLLYDLSAMRADIGDMRKYAVLVYSKDDALETDELVLHVDVEHQRIPTSGVLPV
chain 2: GSAAIQSQDYTFRDISQKSLVLSGSYELRALHLNGQNMNQQVVFRMSFVHGEENSKKIPVVLCIKKNNLYLSCVMKDGKPTLQLEMLDPKVYPKKKMEKRFVFNKTEIKGNVEFESSQFPNWYISTSQAEEMPVFLGNTKGGQDITKFIMESASTSHHHHHHGGCG
modifications: engineered free cysteine linked to the maleimide of SMPH bound to the VLP; lysine on the VLP surface derivatized with SMPH
notes: also called fIL-1b-D145K-CMV-Ntt830-E4 vaccine; fIL1b145K-CMV-Ntt830-E4 vaccine
With B4, the binding result in test [2] is on record as “binds”.

B5: canine IL-1β wild type of SEQ ID NO:29 (ligand)
chain: AAMQSVDCKLQDISHKYLVLSNSYELRALHLNGENVNKQVVFHMSFVHGDESNNKIPVVLGIKQKNLYLSCVMKDGKPTLQLEKVDPKVYPKRKMEKRFVFNKIEIKNTVEFESSQYPNWYISTSQVEGMPVFLGNTRGGQDITDFTMEFSS
notes: also called purified canine IL-1β wild type; wild type canine IL-1β
With B5, the binding result in test [3] was “binds”.

B6: commercially available recombinant canine IL-1β protein (R&D 3747-CL-025) (ligand, UniProt Q28292 115-266, looked up)
chain: AAMQSVDCKLQDISHKYLVLSNSYELRALHLNGENVNKQVVFHMSFVHGDESNNKIPVVLGIKQKNLYLSCVMKDGKPTLQLEKVDPKVYPKRKMEKRFVFNKIEIKNTVEFESSQYPNWYISTSQVEGMPVFLGNTRGGQDITDFTMEFSS
notes: Bought protein; also called recombinant canine IL-1β purchased from R&D system; commercially available canine IL-1β standard
With B6, in test [3], the binding result is “binds”.

B7: feline IL-1β-D145K mutein antigen (ligand)
chain: GSAAIQSQDYTFRDISQKSLVLSGSYELRALHLNGQNMNQQVVFRMSFVHGEENSKKIPVVLCIKKNNLYLSCVMKDGKPTLQLEMLDPKVYPKKKMEKRFVFNKTEIKGNVEFESSQFPNWYISTSQAEEMPVFLGNTKGGQDITKFIMESASTSHHHHHHGGCG
notes: also called fIL-1β-D145K antigen
Consider B7, for which, in test [1], the binding result is “binds”.
